For test [1], the target named is T1, CITED2 variant 3a 218-256 (Homo sapiens, UniProt Q99967, beta3-amino acid replacements in loop (LPEL motif)).
T1 chain: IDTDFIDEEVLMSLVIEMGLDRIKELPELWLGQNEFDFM
Nature of the test: ITC.

The target of test [2] is T2, CITED2 variant 3b 218-256 (Homo sapiens, UniProt Q99967, beta3-amino acid replacements in loop).
T2 chain: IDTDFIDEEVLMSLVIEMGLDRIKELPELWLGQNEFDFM
Put plainly: ITC. (Isothermal titration calorimetry measures the heat released or taken up as one component is titrated into another.)

A further test addresses T3, CITED2 variant 1 218-256 (Homo sapiens, UniProt Q99967, beta3-amino acid replacements in N-terminal tail).
T3 chain: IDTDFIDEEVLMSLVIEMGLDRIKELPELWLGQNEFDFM
Nature of the test: ITC.

The target of test [3] is T4, CITED2 variant 3c 218-256 (Homo sapiens, UniProt Q99967, beta3-amino acid replacements in loop).
T4 chain: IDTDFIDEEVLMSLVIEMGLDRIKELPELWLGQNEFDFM
Nature of the test: ITC.

Another test concerns the target T5, CITED2 variant 4 218-256 (Homo sapiens, UniProt Q99967, beta3-amino acid replacements in C-terminus).
T5 chain: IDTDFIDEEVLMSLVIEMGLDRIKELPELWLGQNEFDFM
Put plainly: ITC.

The next test deals with T6, CITED2 variant 2 218-256 (Homo sapiens, UniProt Q99967, beta3-amino acid replacements in αA helix).
T6 chain: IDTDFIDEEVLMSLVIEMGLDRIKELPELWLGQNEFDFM
Nature of the test: ITC.

The target in a further test is T7, HIF-1α 776-826 (Homo sapiens, UniProt Q16665).
T7 chain: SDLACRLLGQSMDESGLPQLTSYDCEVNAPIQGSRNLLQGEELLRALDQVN
Nature of the test: anisotropy.

B1: p300 TAZ1 330-420 (protein)
chain: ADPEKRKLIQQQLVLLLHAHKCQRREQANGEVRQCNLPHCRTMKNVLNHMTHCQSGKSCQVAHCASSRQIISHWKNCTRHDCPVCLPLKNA
In general, Kd refers to the equilibrium constant for the complex coming apart. Higher therefore signals lower affinity. For B1, the Kd turned out to be 0.675 µM in test [1]; 0.098 µM in test [2]; 0.019 µM in the test with CITED2 variant 1 218-256; 0.029 µM in test [3]; 0.017 µM in the test with CITED2 variant 4 218-256; 0.016 µM with CITED2 variant 2 218-256. This molecule registered a Kd with HIF-1α 776-826 of 0.057 µM.

Values taken from publication PMC11289882 (2024).
